These results are taken from PMC548379.

The target of the data set is NF-kB p50 (rhNF-kB p50) (Homo sapiens, UniProt P19838 1-433). Description: competition.
Sequence of NF-kB p50 (rhNF-kB p50) (P19838 1-433): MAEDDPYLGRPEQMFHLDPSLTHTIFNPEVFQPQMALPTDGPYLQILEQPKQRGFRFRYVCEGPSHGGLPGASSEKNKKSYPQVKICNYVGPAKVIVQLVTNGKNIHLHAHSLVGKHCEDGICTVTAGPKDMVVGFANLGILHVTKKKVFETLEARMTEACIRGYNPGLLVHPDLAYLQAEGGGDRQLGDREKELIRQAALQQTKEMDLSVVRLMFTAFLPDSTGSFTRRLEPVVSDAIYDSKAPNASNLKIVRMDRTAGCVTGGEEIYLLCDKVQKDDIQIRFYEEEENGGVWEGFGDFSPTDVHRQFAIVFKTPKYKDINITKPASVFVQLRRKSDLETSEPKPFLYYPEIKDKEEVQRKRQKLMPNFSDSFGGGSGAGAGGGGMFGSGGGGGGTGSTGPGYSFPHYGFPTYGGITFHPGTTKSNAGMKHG

B1: cold NF-kB specific competition probe (dsDNA)
DNA 1: AGTTGAGGGGACTTTCCCAGGCTTTTT
DNA 2: GCCTGGGAAAGTCCCCTCAACTTTTTT
As to B1, the binding result is on record as “binds”.

B2: cold NF-kB nonspecific competition probe (dsDNA)
DNA 1: AGTTGAGATTACTTTCACCAGGCTTTTT
DNA 2: GCCTGTGAAAGTAATCTCAACTTTTTT
Take B2: the binding result is listed as “no binding”.
